“Also recorded” adds a separate entry of the source.
B1: Pra1: enzyme derived from T. harzianum with proteolytic activity, trypsin type serine-endopeptidase, amino acid sequence SEQ. ID. NO.: 1 (protein, listed as Trichoderma harzianum)
chain: MAPVLAIASVLAALPALTMGAAITPRGSDIVGGTTAALGEFPYIVSLSTGGSHFCGGVLIDSRTVVTAGHCTIDQRASSVKVRAGTLTWASGGTQVGVSSLTLHPSYTVDSQGVPDNDVGVWHLATAIPTSSTIGYATLPASGSDPAAGTTLTVAGWGTTSENSNSLPSTLRKVSVPVVARATCDSDYDGEISNNMFCAAVAAGGKDSCSGDSGGPIIDPSGTLVGVVSWGQGCAERGFPGVYTRLGNYVSFINSNRG

Columns and labels:
Pra1 = experiment: Inhibition of proteolytic activity of Pra1 by specific inhibitors; type: biochemical, T. harzianum; conditions: 1 mM inhibitor, preincubation 30 minutes at 30° C., pH 7.5
Experimental: In order to determine the catalytic type to which Pra1 belongs, specific inhibitors were used of the different known catalytic mechanisms. The effect of said inhibitors on the activity of Pra1 was analysed by preincubating the enzymatic solution for 30 minutes at 30° C. in 100 mM phosphate buffer pH 7.5 with said specific inhibitors of different known catalytic mechanisms:
1 mM PMSF (100 mM initial solution in isopropanol),
1 mM EDTA (100 mM initial solution in water),
0.1 mM Pepstatin (10 mM initial solution in DMSO),
1 mM Iodoacetamide (100 mM initial solution in water, prepared at the time of use).
In parallel to the enzymatic assay, controls were also performed in the presence of organic solvent in which the inhibitor was dissolved. The residual activity was determined by the percentage of activity in absence of inhibitor.

[1] = Determination of kinetic parameters Km, Kcat, Kcat/Km (Lineweaver-Burk); type: biochemical; conditions: Arg-pNA 0.05-2 mM, 30° C., pH 7.5
Experimental: The determination of the kinetic parameters Km, Kcat, and Kcat/Km was performed from the initial rates calculated in assays with different concentrations of substrate (0.05-2 mM). For this, the substrate was prepared in 0.99 ml of 100 mM sodium phosphate buffer pH 7.5 and preincubated at 30° C. Then the reaction was started by the addition of 10 μl of the purified proteases Pra1 (2.5 ppm) preheated to the same temperature. The activity was monitored for 10 minutes in a Shimadzu UV-160A spectrophotometer at 405 nm kept at 30 ? C by a thermostatA unit of activity represented the release of one 1 nmol of p-NA per minute in the assay conditions. Solutions of enzymes without substrate, and substrate without enzyme were prepared as blanks. The standard calibration curve was constructed with solutions of p-NA (Sigma) at known concentrations (0-200 μM), prepared as indicated above. The kinetic parameters were calculated from representations of double reciprocals or by Lineweaver-Burk (1/V vs 1/S).

[2] = Effect of temperature on the activity of Pra1; type: biochemical
Experimental: In order to determine the optimum temperature for activity of Pra1, the enzymatic assay was performed over a range of temperatures comprised between 30° C. and 85° C. The effect of temperature on the stability of Pra1 was determined by preincubating the enzymatic solution in 100 mM sodium phosphate buffer pH 7.5 for 20 minutes at different temperatures (30-85° C.). The substrate used in these assays was the synthetic peptide N-acetyl-Ile-Glu-Ala-Arg-pNA, specific for trypsins.

[3] = Endopeptidase activity on synthetic peptide substrate for chymotrypsins/subtilisins; type: biochemical; conditions: 1 mM substrate, 30° C., 20 minutes
Experimental: (§1) Taking into account the information obtained in Example 3.2, the endopeptidase activity of Pra1 on 3 synthetic peptides (Sigma) is assayed with the amino and carboxyl terminals blocked, with allows the different types of activities to be differentiated within the S1 family of peptidases:
N-succinyl-Ala-Ala-Pro-Phe-pNA (Phe-pNA) for chymotrypsins/subtilisins (this latter belongs to the S8 family).
The enzymatic solution (75 ng) was prepared in 90 μl of 100 mM sodium phosphate buffer and preincubated for 5 minutes at 30° C. The reactions were initiated by addition of 10 μl of preheated 10 mM substrate solution (prepared from 100 mM solutions in DMSO stored at −20° C.). After 20 minutes of incubation, the reactions were stopped by addition of 50 μl of 2% (v/v) acetic acid. Then, the absorbance of 100 μl at 405 nm was measured in microtitre plates with 96 wells (Inmunoplate Maxisorp, NUNC) using a Titertek Multiskan Plus 311 A0 (Flow Laboratories) automatic reader, and the nmoles of p-nitroaniline (p-NA) released per minute were calculated. In parallel, enzyme blanks with no substrate and substrate without enzyme were also processed. The standard calibration line was constructed with solutions of para-nitroanaline (p-NA) (Sigma) at known concentrations (0-1.25 mM) prepared from an initial 5 mM solution. […]

[4] = Isoelectric point by chromatofocussing; type: physicochemical; conditions: observed
Experimental: The purification of enzymes with proteolytic activity obtained from the protocol described in Example 1 was performed from the culture filtrate of T. harzianum CECT 2413 kept for 48 hours in a MM medium with cell walls of C. acutatum as the carbon source. To do this, 2 ml of filtrate dialysed and concentrated 75 times were submitted to chromatofocussing to separate proteins on the basis of their isoelectric point. The elution profiles obtained show two peaks of proteolytic activity on azocasein, one eluted at basic pH, coinciding with the main protein peak, and another at acid pH.

[5] = type: physicochemical; conditions: preincubation 24 hours at 4° C.
Experimental: (§2) For the determination of the optimum pH for activity of Pra1, the assay was carried out in the following buffer systems: 100 mM sodium acetate (pH 3-5.5), 100 mM sodium phosphate (pH 6-7), and 100 mM Tris/HCl (pH 7.5-9). The effect of pH on the stability of Pra1 was determined by pre-incubating the enzymatic solution (750 ng) for 24 hours at 4° C. in […] of the aforementioned buffers. Then, aliquots of 10 μl were taken for performing the assay in standard conditions.
The activity decreased as the pH of preincubation increased, with a reduction of 40% at pH 7.

[6] = Effect of pH on the activity of Pra1; type: biochemical
Experimental: as §2

[7] = Endopeptidase activity on synthetic peptide substrate for trypsins; type: biochemical; conditions: optimum conditions of activity (30° C. and pH 7.5); 1 U = 1 nmol p-NA per minute
Experimental: as §1
N-acetyl-Ile-Glu-Ala-Arg-pNA (Arg-pNA) for trypsins,
(§3) The enzymatic solution (75 ng) was prepared in 90 μl of 100 mM sodium phosphate buffer and preincubated for 5 minutes at 30° C. The reactions were initiated by addition of 10 μl of preheated 10 mM substrate solution (prepared from 100 mM solutions in DMSO stored at −20° C.). After 20 minutes of incubation, the reactions were stopped by addition of 50 μl of 2% (v/v) acetic acid. Then, the absorbance of 100 μl at 405 nm was measured in microtitre plates with 96 wells (Inmunoplate Maxisorp, NUNC) using a Titertek Multiskan Plus 311 A0 (Flow Laboratories) automatic reader, and the nmoles of p-nitroaniline (p-NA) released per minute were calculated. In parallel, enzyme blanks with no substrate and substrate without enzyme were also processed. The standard calibration line was constructed with solutions of para-nitroanaline (p-NA) (Sigma) at known concentrations (0-1.25 mM) prepared from an initial 5 mM solution. This solution was prepared by dissolving p-NA beforehand in a minimum volume of ethanol.

[8] = Endopeptidase activity on synthetic peptide substrate for elastases; type: biochemical; conditions: 1 mM substrate, 30° C., 20 minutes
Experimental: as §1
N-succinyl-Ala-Ala-Pro-Leu-pNA (Leu-pNA) for elastases, and
as §3

Molecule | effect on the lytic activity of Pra1 (Pra1) | Kcat [1] [s⁻¹] | Km [1] [µM] | activity at 30° C. ([2]; 30° C.) [%] | activity at 45° C. ([2]; 45° C.) [%] | activity above 55° C. ([2]; above 55° C.) | optimum temperature for activity ([2]; pH 7.5) [°C] | lytic activity on Phe-pNA (chymotrypsin/subtilisin activity) [3] | isoelectric point (Ip) [4] | reduction of activity after preincubation at pH 7 ([5]; pH 7) [%] | proteolytic activity after preincubation at pH 9 ([5]; pH 9) | optimum pH for activity [6] | activity in buffers with pH greater than 8.5 or less than 6.5 ([6]; pH greater than 8.5 or less than 6.5) | specific activity on Arg-pNA [7] | lytic activity on Leu-pNA (elastase activity) [8]
O=S(=O)(F)Cc1ccccc1 [PMSF] | drastically inhibited | – | – | – | – | – | – | – | – | – | – | – | – | – | –
NC(=O)CI [iodoacetamide, Iodoacetamide] | weak effect | – | – | – | – | – | – | – | – | – | – | – | – | – | –
B1 | – | 39.64 | 220 | 95 | 16 | no activity was detected | ~35 | No lytic activity; also recorded: does not have activity | 4.7-4.9 | 40 | No proteolytic activity was detected | 7.5 | decreased rapidly | 94,800 U/mg | No lytic activity; also recorded: does not have activity

From patent US20040115188A1, “Enzyme with proteolytic activity” (priority 2000, published 2004)
